The values below come from paper PMC4227749.

The series concerns AgrA L171A (Staphylococcus aureus SH1000). Nature of the series: EMSA. The following applies: EMSA: 10 mM HEPES pH 7.6, 50 mM KCl, 1 mM EDTA, 2 mM DTT, 0.5% Triton X-100, 5% glycerol, 37 C; 1 uM AgrA (pre-incubated at 3 uM with 50 mM acetyl phosphate …). A general note: A gel shift assay detects complexes by their altered migration in electrophoresis.

“agr operon intergenic region P2-P3 probe” had a binding signal (% of wild-type binding) of 50.
